Reference: patent US20180155451A1 (published 2018)

T1: FcγRIIb (human, UniProt P31994 43-217)
T1 construct: extracellular domain; also called FcgRIIb; 2b; not shown: His tag at the C terminus
T1 sequence (looked up): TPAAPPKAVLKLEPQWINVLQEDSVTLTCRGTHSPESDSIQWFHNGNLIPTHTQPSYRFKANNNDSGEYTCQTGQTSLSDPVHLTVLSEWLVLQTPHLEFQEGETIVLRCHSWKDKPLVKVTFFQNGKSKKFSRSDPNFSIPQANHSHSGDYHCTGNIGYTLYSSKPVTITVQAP

T2: FcγRIIa R (human FcγRIIa, allotype R, Arg at position 131), extracellular domain with C-terminal His tag (human, UniProt P12318 34-217)
T2 construct: extracellular domain; expressed in FreeStyle293 cells; analyte in Biacore; also called 2aR; FcgRIIa R
T2 sequence (looked up): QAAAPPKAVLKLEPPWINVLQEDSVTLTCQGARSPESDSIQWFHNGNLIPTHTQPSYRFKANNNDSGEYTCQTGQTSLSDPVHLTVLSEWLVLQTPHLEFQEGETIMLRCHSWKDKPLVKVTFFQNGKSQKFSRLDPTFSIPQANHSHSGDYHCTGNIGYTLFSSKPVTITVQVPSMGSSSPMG


Tests used:
FcγRIa [1] = molecular target: T3, FcγRIa (human, UniProt P12314 16-292); experiment: SPR (Biacore); He/Con_1a (FcγRIa) divided by He/Con_2b (FcγRIIb)
T3 construct: extracellular domain; also called FcgRI; 1a; not shown: His tag at the C terminus
T3 sequence (P12314 16-292): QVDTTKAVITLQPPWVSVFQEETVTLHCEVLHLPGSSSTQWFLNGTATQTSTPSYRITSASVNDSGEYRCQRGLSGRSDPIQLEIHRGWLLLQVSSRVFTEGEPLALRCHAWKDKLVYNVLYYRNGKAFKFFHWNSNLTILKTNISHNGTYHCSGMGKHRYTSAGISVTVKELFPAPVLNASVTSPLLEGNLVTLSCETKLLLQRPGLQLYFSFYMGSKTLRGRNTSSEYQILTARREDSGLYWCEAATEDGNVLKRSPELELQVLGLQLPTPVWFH

FcγRIa [2] = molecular target: T3, FcγRIa; experiment: SPR (Biacore), antibody captured, FcγR as analyte; binding as % of GpH7-A5/GpH7-B3/GpL16-k0
FcγRIIb = molecular target: T1, FcγRIIb; experiment: as above
[3] = molecular target: T2, FcγRIIa R (human FcγRIIa, allotype R, …); experiment: SPR (Biacore), relative binding vs GpH7-A5/GpH7-B3/GpL16-k0

| Binder | Ia/IIb He_1a/2b (FcγRIa [1]) | He/Con_1a (FcγRIa [2]) | He/Con_2b (FcγRIIb) | He/Con_2aR [3] |
| --- | --- | --- | --- | --- |
| GpH7-A5/GpH7-B3 variant K326_09D/GpL16-k0 (antibody, human IgG1, kappa, heterodimerized IgG1; alteration in the GpH7-B3 H chain only; also called He Ab) heavy 1: not shown heavy 2: not shown light: DIVMTQSPLSLPVTPGEPASISCQASESLVHSNRNTYLHWYLQKPGQSPQLLIYKVSNRFSGVPDRFSGSGSGTDFTLKISRVEAEDVGVYYCSQNTHVPPTFGQGTKVEIERTVAAPSVFIFPPSDEQLKSGTASVVCLLNNFYPREAKVQWKVDNALQSGNSQESVTEQDSKDSTYSLSSTLTLSKADYEKHKVYACEVTHQGLSSPVTKSFNRGEC | 0.54 ratio | 103 % of control | 193 % of control | – |
| GpH7-A5/GpH7-B3 variant S337_02A/GpL16-k0 (antibody, human IgG1, kappa, heterodimerized antibody, mutation in one H chain only; also called He Ab) heavy 1: not shown heavy 2: not shown light: DIVMTQSPLSLPVTPGEPASISCQASESLVHSNRNTYLHWYLQKPGQSPQLLIYKVSNRFSGVPDRFSGSGSGTDFTLKISRVEAEDVGVYYCSQNTHVPPTFGQGTKVEIERTVAAPSVFIFPPSDEQLKSGTASVVCLLNNFYPREAKVQWKVDNALQSGNSQESVTEQDSKDSTYSLSSTLTLSKADYEKHKVYACEVTHQGLSSPVTKSFNRGEC | – | – | – | 105 relative, control = 100 |
| GpH7-A5/GpH7-B3 variant K326_14T/GpL16-k0 (antibody, human IgG1, kappa, heterodimerized IgG1; alteration in the GpH7-B3 H chain only; also called He Ab) heavy 1: not shown heavy 2: not shown light: DIVMTQSPLSLPVTPGEPASISCQASESLVHSNRNTYLHWYLQKPGQSPQLLIYKVSNRFSGVPDRFSGSGSGTDFTLKISRVEAEDVGVYYCSQNTHVPPTFGQGTKVEIERTVAAPSVFIFPPSDEQLKSGTASVVCLLNNFYPREAKVQWKVDNALQSGNSQESVTEQDSKDSTYSLSSTLTLSKADYEKHKVYACEVTHQGLSSPVTKSFNRGEC | 0.7 ratio | 104 % of control | 150 % of control | – |
| GpH7-A5/GpH7-B3 variant K326_15Y/GpL16-k0 (antibody, human IgG1, kappa, heterodimerized IgG1; alteration in the GpH7-B3 H chain only; also called He Ab) heavy 1: not shown heavy 2: not shown light: DIVMTQSPLSLPVTPGEPASISCQASESLVHSNRNTYLHWYLQKPGQSPQLLIYKVSNRFSGVPDRFSGSGSGTDFTLKISRVEAEDVGVYYCSQNTHVPPTFGQGTKVEIERTVAAPSVFIFPPSDEQLKSGTASVVCLLNNFYPREAKVQWKVDNALQSGNSQESVTEQDSKDSTYSLSSTLTLSKADYEKHKVYACEVTHQGLSSPVTKSFNRGEC | 0.66 ratio | 106 % of control | 159 % of control | – |
| GpH7-A5/GpH7-B3 variant P238_16H/GpL16-k0 (antibody, human IgG1, kappa, heterodimerized antibody, mutation in one H chain only; also called He Ab) heavy 1: not shown heavy 2: not shown light: DIVMTQSPLSLPVTPGEPASISCQASESLVHSNRNTYLHWYLQKPGQSPQLLIYKVSNRFSGVPDRFSGSGSGTDFTLKISRVEAEDVGVYYCSQNTHVPPTFGQGTKVEIERTVAAPSVFIFPPSDEQLKSGTASVVCLLNNFYPREAKVQWKVDNALQSGNSQESVTEQDSKDSTYSLSSTLTLSKADYEKHKVYACEVTHQGLSSPVTKSFNRGEC | – | – | – | 122 relative, control = 100 |
| GpH7-A5/GpH7-B3 variant K326_19Q/GpL16-k0 (antibody, human IgG1, kappa, heterodimerized IgG1; alteration in the GpH7-B3 H chain only; also called He Ab) heavy 1: not shown heavy 2: not shown light: DIVMTQSPLSLPVTPGEPASISCQASESLVHSNRNTYLHWYLQKPGQSPQLLIYKVSNRFSGVPDRFSGSGSGTDFTLKISRVEAEDVGVYYCSQNTHVPPTFGQGTKVEIERTVAAPSVFIFPPSDEQLKSGTASVVCLLNNFYPREAKVQWKVDNALQSGNSQESVTEQDSKDSTYSLSSTLTLSKADYEKHKVYACEVTHQGLSSPVTKSFNRGEC | 0.73 ratio | 102 % of control | 139 % of control | – |

The remaining lines, values ahead:

| Ia/IIb He_1a/2b (FcγRIa [1]) | He/Con_1a (FcγRIa [2]) | He/Con_2b (FcγRIIb) | He/Con_2aR [3] | Binder |
| --- | --- | --- | --- | --- |
| – | – | – | 103 relative, control = 100 | GpH7-A5/GpH7-B3 variant P271_10E/GpL16-k0 (antibody, human IgG1, kappa, heterodimerized antibody, mutation in one H chain only; also called He Ab) heavy 1: not shown heavy 2: not shown light: DIVMTQSPLSLPVTPGEPASISCQASESLVHSNRNTYLHWYLQKPGQSPQLLIYKVSNRFSGVPDRFSGSGSGTDFTLKISRVEAEDVGVYYCSQNTHVPPTFGQGTKVEIERTVAAPSVFIFPPSDEQLKSGTASVVCLLNNFYPREAKVQWKVDNALQSGNSQESVTEQDSKDSTYSLSSTLTLSKADYEKHKVYACEVTHQGLSSPVTKSFNRGEC |
| – | – | – | 122 relative, control = 100 | GpH7-A5/GpH7-B3 variant S267_06M/GpL16-k0 (antibody, human IgG1, kappa, heterodimerized antibody, mutation in one H chain only; also called He Ab) heavy 1: not shown heavy 2: not shown light: DIVMTQSPLSLPVTPGEPASISCQASESLVHSNRNTYLHWYLQKPGQSPQLLIYKVSNRFSGVPDRFSGSGSGTDFTLKISRVEAEDVGVYYCSQNTHVPPTFGQGTKVEIERTVAAPSVFIFPPSDEQLKSGTASVVCLLNNFYPREAKVQWKVDNALQSGNSQESVTEQDSKDSTYSLSSTLTLSKADYEKHKVYACEVTHQGLSSPVTKSFNRGEC |
| – | – | – | 114 relative, control = 100 | GpH7-A5/GpH7-B3 variant P331_03V/GpL16-k0 (antibody, human IgG1, kappa, heterodimerized antibody, mutation in one H chain only; also called He Ab) heavy 1: not shown heavy 2: not shown light: DIVMTQSPLSLPVTPGEPASISCQASESLVHSNRNTYLHWYLQKPGQSPQLLIYKVSNRFSGVPDRFSGSGSGTDFTLKISRVEAEDVGVYYCSQNTHVPPTFGQGTKVEIERTVAAPSVFIFPPSDEQLKSGTASVVCLLNNFYPREAKVQWKVDNALQSGNSQESVTEQDSKDSTYSLSSTLTLSKADYEKHKVYACEVTHQGLSSPVTKSFNRGEC |
